Data reported in patent publication US6911526B2, “Compounds that inhibit the interaction between signal-transducing proteins and the GLGF (PDZ/DHR) domain and uses thereof” (The Trustees of Columbia University in the City of New York, priority 1996, dated 2005).
Substitutions are numbered along the chain they refer to. Entries after “also recorded” stand apart in the source; their conditions may differ. Where no end group is shown, it is not given here.

How the values were obtained:
Fas/FAP-1 binding [1] = assay: In vitro inhibition assay of Fas/FAP-1 binding (GST-Fas and in vitro-translated 35S-FAP-1); conditions: for binding of in vitro-translated FAP-1 to GST-Fas: FIG. 3A, C-terminal 15 amino acids at 1-1000 μM, human PAMP 1 mM as negative control
Protocol: HFAP-10 cDNA (Sato, et al. 1995) subcloned into the Bluescript vector pSK-II (Stratagene) was in vitro-translated from an internal methionine codon in the presence of ^35S-L-methionine using a coupled in vitro transcription/translation system (Promega, TNT lysate) and T7 RNA polymerase. The resulting ^35S-labeled protein was incubated with GST-Fas fusion proteins that had been immobilized on […] affinity beads (Pharmacia) in a buffer containing 150 mM NaCl, 50 mM Tris [pH 8.0], 5 mM DTT, 2 mM EDTA, 0.1% NP-40, 1 mM PMSF, 50 μg/ml leupeptin, 1 mM Benzamidine, and 7 μg/ml pepstatin for 16 hours at 4° C. After washing vigorously 4 times in the same buffer, associated proteins were recovered with the glutathione-Sepharose beads by centrifugation, eluted into boiling Laemmli buffer, and analyzed by SDS-PAGE and fluorography.
In vitro-translated [^35S]HFAP-1 was purified with a NAP-5 column (Pharmacia) and incubated with 3 μM of GST-fusion proteins for 16 hours at 4° C. After washing 4 times in the binding buffer, radioactivity incorporation was determined in a b counter. The percentage of binding inhibition was calculated as follows: percent inhibition=[radioactivity incorporation using GST-Fas (191-335) with peptides−radioactivity incorporation using GST-Fas (191-320) with peptides]/[radioactivity incorporation using GST-Fas (191-335) without peptides−radioactivity incorporation using GST-Fas (191-320) without peptides]. n=3.

[2] = system: DLD-1 human colon cancer cells; assay: Microinjection of synthetic tripeptides into DLD-1 cells, Fas-induced apoptosis; assay type: cell-based; conditions: tripeptide 100 mM microinjected into cytoplasm, Fas monoclonal antibody CH11 500 ng/ml, 16-20 hours postinjection, condensed chromatin (Hoechst 33342)
Protocol: DLD-1 human colon cancer cells were cultured in RPMI 1640 medium containing 10% FCS. For microinjection, cells were plated on CELLocate (Eppendorf) at 1×10^5 cells/2 ml in a 35 mm plastic culture dish and grown for 1 day. Just before microinjection, Fas monoclonal antibodies CH11 (MBL International) was added at the concentration of 500 ng/ml. All microinjection experiments were performed using an automatic microinjection system (Eppendorf transjector 5246, micro-manipulator 5171 and Femtotips) (Pantel, et al. 1995). Synthetic tripeptides were suspended in 0.1% (w/v) FITC-Dextran (Sigma)/K-PBS at the concentration of 100 mM. The samples were microinjected into the cytoplasmic region of DLD-1 cells. Sixteen to 20 hours postinjection, the cells were washed with PBS and stained with 10 μg/ml Hoechst 33342 in PBS. After incubation at 37° C. for 30 minutes, the cells were photographed and the cells showing condensed chromatin were counted as apoptotic.
For each experiment, 25-100 cells were microinjected. Apoptosis of microinjected cells was determined by assessing morphological changes of chromatin using phase contrast and fluorescence microscopy (Wang, et al., 1995; McGahon, et al., 1995). The data are means +/− S.D. for two or three independent determinations.

Fas/FAP-1 binding [3] = assay: Inhibition of binding of GST-FAP-1 to native Fas extracted from Jurkat T-cells (Western analysis); conditions: GST-FAP-1, Jurkat T-cell extracts; FIGS. 4C and 4D
Protocol: GST-fusion proteins with or without FAP-1 were incubated with cell extracts from Jurkat T-cells expressing Fas. The bound Fas was detected by Western analysis using anti-Fas monoclonal antibody (F22120, Transduction Laboratories). The tripeptides, Ac-SLV and Ac-SLY were used for the inhibition assay of Pas/FAP-1 binding.

FAP-1 = assay: Interaction of C-terminal tripeptides fused to LexA with FAP-1 in yeast two-hybrid system; assay type: cell-based; conditions: LexA fusion co-transformed into yeast L40 with pVP16-FAP-1; FIG. 4A
Excerpt: The bait plasmids, pBTM116 (LexA)-SLV, -PLV, -SLY, and -SLA, were constructed and transformed into L40-strain with pVP16-FAP-1 or -ras. Six independent clones from each transformants were picked up for the analysis of growth on histidine-deficient medium. GST-Fas, -SLV, and PLV were purified with GST-Sepharose 4B affinity beads (Pharmacia). The methods for in vitro binding are described above.

LexA-PLV fusion protein = target: T1, LexA-PLV fusion protein (UniProt P0A7C2 1-202); assay: yeast two-hybrid (growth on histidine-deficient medium)
T1 construct: Yeast two-hybrid bait; also called pBTM116 (LexA)-PLV; -PLy
T1 sequence: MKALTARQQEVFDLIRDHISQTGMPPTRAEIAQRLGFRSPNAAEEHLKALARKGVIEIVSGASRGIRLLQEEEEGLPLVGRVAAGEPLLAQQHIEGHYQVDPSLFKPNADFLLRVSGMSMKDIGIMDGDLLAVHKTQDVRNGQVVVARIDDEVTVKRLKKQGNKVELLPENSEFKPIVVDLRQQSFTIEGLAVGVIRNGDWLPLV

LexA-SLY fusion protein = target: T2, LexA-SLY fusion protein (UniProt P0A7C2 1-202); assay: as above
T2 construct: Yeast two-hybrid bait; also called pBTM116 (LexA)-SLY
T2 sequence: T1 sequence with P203S, V205Y

LexA-SLA fusion protein = target: T3, LexA-SLA fusion protein (UniProt P0A7C2 1-202); assay: as above
T3 construct: Yeast two-hybrid bait; also called pBTM116 (LexA)-SLA
T3 sequence: T1 sequence with P203S, V205A

## Ac-SLV-COOH (Ac-Ser-Leu-Val-OH) [acetylated tripeptide of the three C-terminal amino acids of Fas]
Fas/FAP-1 binding [1]; FIG. 3B, acetylated synthetic peptides
  inhibitory effect on the binding of FAP-1 to Fas, truncated acetylated peptides: same level of inhibitory effect
[2]
  induction of apoptosis in microinjected DLD-1 cells: dramatically induced apoptosis
Fas/FAP-1 binding [3]
  binding activity of FAP-1 to Fas proteins extracted from Jurkat T-cells: abolished in a dose-dependent manner

## human PAMP peptide: N-terminal 20 amino acids of proadrenomedullin, negative control (ARLDVASEFRKKWNKWALSR) [reference compound]
Fas/FAP-1 binding [1]
  binding of in vitro-translated FAP-1 to GST-Fas: no effect

## DSENSNFRNEIQSLV (Ac-DSENSNFRNEIQSLV) [synthetic 15 amino acids of Fas, synthetic peptide of the C-terminal 15 amino acids of Fas]
Fas/FAP-1 binding [1]
  binding of in vitro-translated FAP-1 to GST-Fas: dramatically reduced and dependent on the concentration

## Ac-SLY: acetylated synthetic tripeptide SLY, used as non-binding control (Ac-Ser-Leu-Tyr)
[2]
  induction of apoptosis in microinjected DLD-1 cells: did not; also recorded: only one cell of the area appeared apoptotic
Fas/FAP-1 binding [3]
  binding activity of FAP-1 to Fas proteins extracted from Jurkat T-cells: not

B1: LexA-SLV: LexA DNA binding domain fused to tripeptide SLV (yeast bait) (protein)
chain: T1 sequence with P203S
FAP-1
  association with FAP-1 in yeast (growth on histidine-deficient medium): associated with FAP-1

B2: LexA-PLV: LexA DNA binding domain fused to tripeptide PLV (yeast bait) (protein)
chain: T1 sequence
FAP-1
  association with FAP-1 in yeast (growth on histidine-deficient medium): did not

B3: LexA-SLY: LexA DNA binding domain fused to tripeptide SLY (yeast bait) (protein)
chain: T1 sequence with P203S, V205Y
FAP-1
  association with FAP-1 in yeast (growth on histidine-deficient medium): did not

B4: LexA-PLY: LexA DNA binding domain fused to tripeptide PLY (yeast bait) (protein)
chain: T1 sequence with V205Y
FAP-1
  association with FAP-1 in yeast (growth on histidine-deficient medium): did not

B5: LexA-SLA: LexA DNA binding domain fused to tripeptide SLA (yeast bait) (protein)
chain: T1 sequence with P203S, V205A
FAP-1
  association with FAP-1 in yeast (growth on histidine-deficient medium): did not

B6: FAP-1 expressed from plasmid pVP16-31 (VP16 fusion, yeast two-hybrid prey) (other)
chain: KMNFKTFSSSPPKPGDIFEVELAKNDNSLGISVTGGVNTSVRHGGIYVKAVIPQGAAESDGRIHKGDRVLAVNGVSLEGATHKQAVETLRNTGQVVHLLLEKGQSPTSKEHVPVTPQCTLS
notes: also called pVP16-FAP-1; Fas-associated phosphatase-1
LexA-PLV fusion protein
  binding result: no binding
LexA-SLY fusion protein
  binding result: no binding
LexA-SLA fusion protein
  binding result: no binding
